Results from patent US5463022A, “N-acetylcarboxymethylchitosan derivatives and process for preparation thereof” (priority 1990, dated 1995).

Columns and labels:
[1] = Plasma concentration of 3H-labeled complexes in tumor-bearing rats (AUC); type: in vivo, female Wistar rats; details: 10 mg/Kg; for AUCo-oo in Plasma: carotids; for increase of retention in blood compared with the referential complexes (AUC): ratio to referential complexes
Procedure: Thus, the complexes which were obtained as the final products of Examples 17, 18 and 19 above and had the polyethylene glycol (PEG) contents of 6%, 21% and 43%, respectively, and of which the MTX portions were labelled with ^3 H, were prepared and employed as the ^3 H-labeled test compounds for use as Test Samples 1, 2 and 3. Further, the complexes same as those above-mentioned complexes except that the PEG portion was eliminated therefrom and the MTX portion was ^3 H-labeled, were also prepared and used as referential ^3 H-labeled compounds. In each of the complexes used as Test Samples 1, 2 and 3 and the complexes used as the referential complexes, the peptide chain which was bonded to the 2-amino group of the carboxymethylglucosamine unit of these tested complexes was Gly-Phe-Phe. The PEG portion present in the complexes as Test Samples 1, 2 and 3 was the PEG1 (molecular weight: 5,000) as described in Example 17.
In the following experiment, there were employed such tumor-bearing female Wistar rats which had received the subcutaneous transplantation of cancer cells, Walker 256, to an inguinal part and subsequently had been raised for 6 days. Each solution of the test sample was prepared for administration, by suitably diluting the ^3 H-labeled test sample complex with a solution of a corresponding non-radioactively labeled complex in physiological saline. Using three rats per group, the solution of the test sample was administered into the carotids of rats at a dose of 10 mg/Kg of the complex.
Under ether anesthesia, blood was sampled from the carotid of rats periodically at the ends of 30 minutes, 1 hour, 2 hours, 4 hours and 6 hours after the administration, and the blood was centrifuged to separate the plasma. Upon elapsed time of 24 hours after the administration, blood was collected from rats under ether enesthesia until the rats were sacrificed under exsanguination. Several tissues and organs were separated from the sacrificed rats. After weighing the whole or some parts of the tissues and organs, their radioactivities were measured.
The radioactivity of the tissues separated was measured in the following manner. After each sample of tissue was collected in a combustion cone and was dried, the sample was combusted in an automatic sample-combusting apparatus ("ASC-113", ALOKA). The resulting ^3 H2 O was added to a scintillator ("AQUASOL-2", NEN) and then measured by liquid scintillation counter ("LSC-3600", ALOKA). The value of radioactivity so measured was calibrated by the external standard radiation source method.
The test results are presented in FIG. 29 and FIG. 30 of the accompanying drawings as well as in Table 1 given hereinafter. FIG. 29 is a graph showing time-dependent variations in the concentration of each sample complex present in the plasma as measured up to the end of 24 hours after the administration of the complex. FIG. 30 is a graph showing the distributions of each sample complex present in tissues of the rat body which are expressed as the concentration of the complex in term of the percentages on the basis of the dose of the complex.

Walker 256 = assay: Concentration of 3H-labeled complexes in tumor (Walker 256) of rats; type: in vivo, female Wistar rats; details: 10 mg/Kg, carotids, 1440 min
Procedure: The radioactivity of the tissues separated was measured in the following manner. […] The resulting ^3 H2 O was added to a scintillator ("AQUASOL-2", NEN) and then measured by liquid scintillation counter ("LSC-3600", ALOKA). The value of radioactivity so measured was calibrated by the external standard radiation source method.

[2] = Serum concentration of 3H-labeled compound after i.v. administration in tumor-bearing mice; type: in vivo, male ICR mice; details: 20 mg/Kg, caudal vein, 15 minutes to 24 hours, FIG. 18
Description: (§1) The N-acetylcarboxymethylchitosan--Gly-Gly-Gly--MTX complex of Example 2, in which the MTX portion had been ^3 H-labeled, was used as a test sample compound. In addition, an ^3 H-labeled product of the partially N-acetylated carboxymethylchitosan as obtained in the course of the process of Example 1 was employed as a referential sample.
(§2) In the following experiment, there were employed tumor-bearing male ICR mice which had received subcutaneous implantation of Sarcoma 180 and subsequently had been raised for 10 days. The test sample compound was dissolved in physiological saline. Using three mice per group, the solution of the test sample compound was administered at a dose of 20 mg/Kg through the caudal vein. At the ends of 15 minutes, 30 minutes, 1 hour, 2 hours, 6 hours and 24 hours after the administration, the femoral artery and femoral vein of the mice of the respective groups were cut to collect blood samples. The radioactivity of a serum sample, which had been obtained by centrifuging each of the blood samples, and the radioactivity of a cancer tissue taken from the corresponding mouse were measured by the combustion method. In this way, the concentrations of the test sample compound present in the serum and the cancer tissue were evaluated.
(§3) The test results are plotted in FIGS. 18 and 19 of the accompanying drawings. […]

Sarcoma 180 = assay: Concentration of 3H-labeled compound in cancer tissue (Sarcoma 180) of mice; type: in vivo, male ICR mice; details: 20 mg/Kg, caudal vein, up to 24 hours, FIG. 19
Description: as §1, §2, §3

## N-acetylcarboxymethylchitosan-(PEG1)--Gly-Phe-Phe--MTX [Test Sample 1]
[1]
  AUCo-oo in Plasma: 20.85 % of dose · hr/ml
  increase of retention in blood compared with the referential complexes (AUC): about 1.3 times
Walker 256
  Concentration of Sample in Tumor at end of 24 hrs: 0.22 % of dose/g

## N-acetylcarboxymethylchitosan-(PEG1)--Gly-Phe-Phe--MTX [Test Sample 2]
[1]
  AUCo-oo in Plasma: 46.20 % of dose · hr/ml
  increase of retention in blood compared with the referential complexes (AUC): about 3 times
Walker 256
  Concentration of Sample in Tumor at end of 24 hrs: 0.35 % of dose/g

## N-acetylcarboxymethylchitosan-(PEG1)--Gly-Phe-Phe--MTX [Test Sample 3]
[1]
  AUCo-oo in Plasma: 45.52 % of dose · hr/ml
  increase of retention in blood compared with the referential complexes (AUC): about 3 times
Walker 256
  Concentration of Sample in Tumor at end of 24 hrs: 0.44 % of dose/g

## N-acetylcarboxymethylchitosan--Gly-Gly-Gly--MTX [Example 2]
[2]
  retention in blood versus simple polysaccharide referential sample: comparable to or longer than the retention of the simple polysaccharide
Sarcoma 180
  concentration in cancer tissue versus simple polysaccharide: can concentrate in a cancer tissue
